This passage reports koff results from patent US20230192860A1 (Bristol-Myers Squibb, published 2023).

The experiment has as its target T1, monovalent hVISTA-ECD (amino acids 32-193 of SEQ ID NO: 1 with a 7xHis tail) (human, UniProt Q9H7M9 33-193).
T1 construct: analyte of the SPR assays; also called huVISTA-His; human VISTA-ECD
Kind of experiment: SPR 37C, Ab on Protein A, hVISTA-ECD 50-0.2 nM, pH 6.0. The procedure:
Surface plasmon resonance (SPR) analysis was performed to measure the association rates (defined as ka or kₒₙ, 1/Ms units), dissociation rates (defined as kd or koff, s⁻¹ units) and affinity constants (defined as KD, M units) for VISTA Abs at acidic and physiological pHs using a Biacore® T200 instrument (GE Healthcare). […] Antibodies were diluted to 20 nM in PBST pH 7.4, and were captured across active biosensor flow cells at 5 ul/min for 50 seconds. A concentration series of 50 - 0.2 nM monovalent hVISTA-ECD (SEQ ID NO: 325) was prepared in pH 7.4 and 6.0 running buffers, and was injected over the captured antibodies at 40 ul/min to measure association and dissociation. Two 15 second injections of 10 mM glycine pH 1.5 were used to regenerate the Protein A capture surface between assay cycles. Rate constants kₐ (kₒₙ) and kd (kₒff) were derived from reference flow cell and 0 nM blank-subtracted sensorgrams, and were fit to a 1:1 binding model in Biacore® T200 Evaluation Software v.2.0.

T1 sequence (Q9H7M9 other isoform, or with tags, fused parts or gaps limits assumed): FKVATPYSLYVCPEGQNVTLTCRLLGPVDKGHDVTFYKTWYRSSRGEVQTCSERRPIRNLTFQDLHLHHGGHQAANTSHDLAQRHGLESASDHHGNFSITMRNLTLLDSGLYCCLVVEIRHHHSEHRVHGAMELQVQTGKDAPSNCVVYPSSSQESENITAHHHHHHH

B1: P1-061029.IgG1.3 (antibody)
heavy: EVQLVESGGGLVQPGKSLRLSCAASGFTLDDYAMHWVRQAPGKGLEWVSGINWNSANIGYADSVKGRFTISRDNAKNSLYLQMNSLRTEDTALYYCAKVPGYSGGWIDAFDVWGQGTMVTVSSASTKGPSVFPLAPSSKSTSGGTAALGCLVKDYFPEPVTVSWNSGALTSGVHTFPAVLQSSGLYSLSSVVTVPSSSLGTQTYICNVNHKPSNTKVDKRVEPKSCDKTHTCPPCPAPEAEGAPSVFLFPPKPKDTLMISRTPEVTCVVVDVSHEDPEVKFNWYVDGVEVHNAKTKPREEQYNSTYRVVSVLTVLHQDWLNGKEYKCKVSNKALPAPIEKTISKAKGQPREPQVYTLPPSREEMTKNQVSLTCLVKGFYPSDIAVEWESNGQPENNYKTTPPVLDSDGSFFLYSKLTVDKSRWQQGNVFSCSVMHEALHNHYTQKSLSLSPG
light: not shown
notes: IgG1.3; also called P1-061029 (parent); P1-061029-18
In turn, B1 showed a koff of 0.0048 s⁻¹.
